# In paper PMC5033645 (Nature structural & molecular biology, 2016):
# Experiments:
# [1] = pan-SV2 immunoblot of neuron lysates; settings: glycan lost
# [2] = target: BoNT/A1 receptor-binding domain (HCA), wild type (UniProt P0DPI0 872-1296); assay: SPR
binder,measurement,setting,value
SV2A: SV2A-N573A (protein) parent chain: MEEGFRDRAAFIRGAKDIAKEVKKHAAKKVVKGLDRVQDEYSRRSYSRFEEEEDDDDFPAPADGYYRGEGAQDEEEGGASSDATEGHDEDDEIYEGEYQGIPRAESGGKGERMADGAPLAGVRGGLSDGEGPPGGRGEAQRRKDREELAQQYETILRECGHGRFQWTLYFVLGLALMADGVEVFVVGFVLPSAEKDMCLSDSNKGMLGLIVYLGMMVGAFLWGGLADRLGRRQCLLISLSVNSVFAFFSSFVQGYGTFLFCRLLSGVGIGGSIPIVFSYFSEFLAQEKRGEHLSWLCMFWMIGGVYAAAMAWAIIPHYGWSFQMGSAYQFHSWRVFVLVCAFPSVFAIGALTTQPESPRFFLENGKHDEAWMVLKQVHDTNMRAKGHPERVFSVTHIKTIHQEDELIEIQSDTGTWYQRWGVRALSLGGQVWGNFLSCFSPEYRRITLMMMGVWFTMSFSYYGLTVWFPDMIRHLQAVDYAARTKVFPGERVEHVTFNFTLENQIHRGGQYFNDKFIGLRLKSVSFEDSLFEECYFEDVTSSNTFFRNCTFINTVFYNTDLFEYKFVNSRLVNSTFLHNKEGCPLDVTGTGEGAYMVYFVSFLGTLAVLPGNIVSALLMDKIGRLRMLAGSSVLSCVSCFFLSFGNSESAMIALLCLFGGVSIASWNALDVLTVELYPSDKRTTAFGFLNALCKLAAVLGISIFTSFVGITKAAPILFASAALALGSSLALKLPETRGQVLQ,expression_or_secretion,[1]; control: WT SV2A,no change
SV2B: SV2B-N516A (protein) parent chain: MDDYRYRDNYEGYAPNDGYYRGNEQNPEEDAQSDVTEGHDEEDEIYEGEYQGIPHPDDVKSKQTKMAPSRADGLRGQADLMAERMEDEEQLAHQYETIIDECGHGRFQWTLFFVLVLALMADGVEVFVVSFALPSAEKDMCLSSSKKGMLGLIVYLGMMAGAFILGGLADKLGRKKVLSMSLAINASFASLSSFVQGYGAFLFCRLISGIGIGGSLPIVFAYFSEFLSREKRGEHLSWLGIFWMTGGIYASAMAWSIIPHYGWGFSMGTNYHFHSWRVFVIVCALPATVSMVALKFMPESPRFLLEMGKHDEAWMILKQVHDTNMRAKGTPEKVFTVSHIKTPKQMDEFIEIQSSTGTWYQRWLVRFMTIFKQVWDNALYCVMGPYRMNTLILAVVWFTMALSYYGLTVWFPDMIRYFQDEEYKSKMKVFFGEHVHGATINFTMENQIHQHGKLVNDKFIKMYFKHVLFEDTFFDKCYFEDVTSTDTYFKNCTIESTTFYNTDLYKHKFIDCRFINSTFLEQKEGCHMDFEEDNDFLIYLVSFLGSLSVLPGNIISALLMDRIGRLKMIGGSMLISAVCCFFLFFGNSESAMIGWQCLFCGTSIAAWNALDVITVELYPTNQRATAFGILNGLCKLGAILGNTIFASFVGITKVVPILLAAASLVGGGLVALRLPETREQVLM,expression_or_secretion,[1]; control: WT SV2B,decreases
"SV2C (full length, in neurons): SV2C-N559A (protein) parent chain: MEDSYKDRTSLMKGAKDIAKEVKKQTVKKVNQAVDRAQDEYTQRSYSRFQDEDDDDDYYPPGETYSGEANDDEGSSEATEGHDEEDEIYEGEYQGIPSTNQGKDSIVSVGQPKGDEYKDRRELESERRADEEELAQQYELIIQECGHGRFQWALFFVLGMALMADGVEVFVVGFVLPSAETDLCIPNSGSGWLGSIVYLGMMVGAFFWGGLADKVGRKQSLLICMSVNGFFAFLSSFVQGYGFFLLCRLLSGFGIGGAIPTVFSYFAEVLAREKRGEHLSWLCMFWMIGGIYASAMAWAIIPHYGWSFSMGSAYQFHSWRVFVIVCALPCVSSVVALTFMPESPRFLLEVGKHDEAWMILKLIHDTNMRARGQPEKVFTVNKIKTPKQIDELIEIESDTGTWYRRCFVRIRTELYGIWLTFMRCFNYPVRENTIKLTIVWFTLSFGYYGLSVWFPDVIKHLQSDEYALLTRNVQKDKYANFSINFTMENQVHTGMEYDNGRFLGVKFKSVTFKDSVFKSCTFDDVTSVNTYFKNCTFIDTLFENTDFEPYKFIDSEFQNCSFLHNKTGCQITFDDDYSAYWIYFVNFLGTLAVLPGNIVSALLMDRIGRLTMLGGSMVLSGISCFFLWFGTSESMMIGMLCLYNGLTISAWNSLDVVTVELYPTDRRATGFGFLNALCKAAAVLGNLIFGSLVSITKAIPILLASTVLVCGGLVGLRLPDTRTQVLM",expression_or_secretion,[1]; control: WT SV2C,decreases
"SUMO-bSV2C: human SV2C-L4 (V473-T567) with 6xHis/SUMO tag, expressed in E. coli (domain or fragment) VERDKYANFTINFTMENQIHTGMEYDNGRFIGVKFKSVTFKDSVFKSCTFEDVTSVNTYFKNCTFIDTVFDNTDFEPYKFIDSEFKNCSFFHNKT",Kd,[2],~86 nM
same,koff,[2],0.11 s⁻¹
